Experimental findings from patent US20080171037A1 (Genentech, published 2008) are described below.

For the assay, the target named is T1, ECD of the Apo-2L receptor, DR5 (UniProt O14763 56-210, limits assumed).
T1 construct: extracellular domain; Comparison receptor
As to the kind of experiment: co-immunoprecipitation (anti-Flag sepharose or nickel-sepharose), Western blot with nickel-conjugated HRP. The protocol:
The respective ligands (1 μg/ml) and receptors (1 μg/ml) were incubated for 1 hour at room temperature. The reaction mixtures were subjected to precipitation with anti-Flag antibody conjugated to sepharose beads (Kodak) (FIG. 8A, left) or nickel-sepharose (Qiagen) (FIG. 8A, right) by overnight incubation at 4° C. according to manufacturer's instructions and resolved by gel electrophoresis. The ligands were visualized by Western blot analysis with nickel-conjugated horseradish peroxidase. In FIG. 8A, molecular weight markers (kDa) are indicated on the left.

B1: His-tagged soluble Apo-3 Ligand (ligand)
chain: MGHHHHHHHHHHSSGHIDDDDKHMRASLSAQEPAQEELVAEEDQDPSELNPQTEESQDPAPFLNRLVRPRRSAPKGRKTRARRAIAAHYEVHPRPGQDGAQAGVDGTVSGWEEARINSSSPLRYNRQIGEFIVTRAGLYYLYCQVHFDEGKAVYLKLDLLVDGVLALRCLEEFSATAASSLGPQLRLCQVSGLLALRPGSSLRIRTLPWAHLKAAPFLTYFGLFQVH
notes: also called histidine tagged soluble Apo-3 Ligand; DNA30879
B1: the binding result is “no binding (tested: 1 µg/ml ligand and 1 µg/ml receptor)”.
